# In patent publication US20260250410A1 (SICHUAN HUIYU PHARMACEUTICAL, published 2026):
# T1: HuCDCP1-B (human, UniProt Q9H5V8 343-667)
# T1 construct: range 343-667; expressed in HEK-293T, purified by Fc/his tag; also called human CDCP1-B; membrane-proximal region of CDCP1; not shown: Fc or his tag
# T1 sequence (looked up): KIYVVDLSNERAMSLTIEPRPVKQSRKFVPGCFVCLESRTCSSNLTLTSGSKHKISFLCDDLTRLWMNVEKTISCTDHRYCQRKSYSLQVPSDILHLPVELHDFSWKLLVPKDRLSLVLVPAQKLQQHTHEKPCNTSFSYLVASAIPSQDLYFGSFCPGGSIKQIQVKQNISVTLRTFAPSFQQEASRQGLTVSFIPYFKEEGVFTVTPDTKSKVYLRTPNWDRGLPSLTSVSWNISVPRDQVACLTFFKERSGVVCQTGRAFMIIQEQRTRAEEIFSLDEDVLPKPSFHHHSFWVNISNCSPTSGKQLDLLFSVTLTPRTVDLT
# T2: human CDCP1 on tumor cells (human, UniProt Q9H5V8 30-836)
# T2 construct: whole, on cells; cell line is named under assay or readout
# T2 sequence (looked up): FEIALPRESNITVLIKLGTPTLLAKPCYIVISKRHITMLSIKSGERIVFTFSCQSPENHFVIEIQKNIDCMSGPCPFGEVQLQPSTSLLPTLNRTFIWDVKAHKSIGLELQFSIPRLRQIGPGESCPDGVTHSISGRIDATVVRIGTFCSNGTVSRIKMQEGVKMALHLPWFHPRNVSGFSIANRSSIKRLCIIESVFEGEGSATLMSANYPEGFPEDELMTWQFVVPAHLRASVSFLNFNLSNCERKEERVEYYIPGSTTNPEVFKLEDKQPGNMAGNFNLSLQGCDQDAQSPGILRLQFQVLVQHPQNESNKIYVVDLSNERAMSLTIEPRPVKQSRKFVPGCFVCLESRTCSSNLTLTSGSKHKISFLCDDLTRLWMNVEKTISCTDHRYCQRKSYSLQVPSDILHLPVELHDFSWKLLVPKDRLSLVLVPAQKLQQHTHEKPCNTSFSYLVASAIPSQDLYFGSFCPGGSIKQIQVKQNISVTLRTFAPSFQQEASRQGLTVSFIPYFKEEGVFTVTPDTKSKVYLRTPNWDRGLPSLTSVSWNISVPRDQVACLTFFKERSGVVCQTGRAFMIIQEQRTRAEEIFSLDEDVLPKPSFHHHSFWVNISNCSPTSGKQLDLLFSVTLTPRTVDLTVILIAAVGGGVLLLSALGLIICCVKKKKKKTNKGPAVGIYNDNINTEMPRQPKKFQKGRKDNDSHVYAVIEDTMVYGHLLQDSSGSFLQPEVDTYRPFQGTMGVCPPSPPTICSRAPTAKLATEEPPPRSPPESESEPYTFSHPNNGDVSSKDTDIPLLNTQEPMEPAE
# Key:
# HuCDCP1-B = molecular target: T1, HuCDCP1-B; experiment: SPR (Caterra or Biacore), antigen immobilized
# [1] = molecular target: T2, human CDCP1 on tumor cells; experiment: flow cytometry, MDA-MB-231 cells
# Method: Flow cytometry was used to detect the binding capacity of antibody to tumor cells. […] 2.0×10⁴ tumor cells were added per well, respectively, and 50 μL (PBS+2% FBS) were added, and after blocking at room temperature with an Fe blocker (Human TruStain FcX™, Biolegend, 422302) for 10 mins, an anti-CDCP1 murine monoclonal antibody at a final concentration of 200 nM was added. The obtained mixture was subjected to a 3-fold serial dilution across 8 concentration points, and incubated at 4° C. for 30 mins, and then incubated with a secondary antibody (PE anti-human IgG Fc Antibody, Biolegend, 410708), detection was performed using a flow cytometer.
EC50 (HuCDCP1-B) [nM],EC50 [1] [nM],Binder
3.78,0.27,"3C11 (antibody, V domains shown, murine hybridoma mAb) VH: EVQLQQSGTVLARPGASVKMSCKASGYNFISYWLHWIKQRPGQGLEWIGGIYPGNTDTTYNQKFKGKAKVTAVTSATTAYMELSSLTNEDSAVYYCIRYDYDRGMDYWGQGTTVTVSS VL: DIQMTQSPSSFSVSLGDRVTITCRASEDIYYRLAWYQQKPGNAPRLLISGATALETGVPSRFSGSGSGKDYTLSITSLQTEDVATYYCQHYWNIPWTFGGGTKLEIK"
1.62,85.5,"12E6 (antibody, V domains shown, murine hybridoma mAb) VH: EVQLKESGPGILQPSQTLSLTCSFSGFSLSTSGMGVGWIRQPSGKGLEWLAHIWWDDVKLYNPALKSRLTISKETSNNQVFLKIASVDAADTATYYCARIDHGYGSNYWDFDVWGAGTTVTVSS VL: DIVMTQAAPSVPVTPGGSVSISCRSTKSLLHSDGKTYLYWFLQRPGQSPQLLIYRMSNLASGVPDRFSGSGSGTAFTLRISRVEAEDVGVYYCMQHLEYPFTFGSGTKLEIK"
